B1: K165S (designed binder)
α1-α2 domain displayed on M13 phage (pIII fusion): AAEPHSLWYNFTIIHLPRHGQQWCEVQSQVDQKNFLSYDCGSDKVLSMGHLEEQLYATDAWGKQLEMLREVGQRLRLELADTELEDFTPSGPLTLQVRMSCESEADGYIRGSWQFSFDGRKFLLFDSNNRKWTVVHAGARRMKEKWEKDSGLTTFFKMVSMRDCSSWLRDFLMHRKKRLEPTAPPMV
B2: K165P (designed binder)
α1-α2 domain displayed on M13 phage (pIII fusion): B1 α1-α2 domain displayed on M13 phage (pIII fusion) with S165P
B3: R162G (designed binder)
α1-α2 domain displayed on M13 phage (pIII fusion): B1 α1-α2 domain displayed on M13 phage (pIII fusion) with S103C, R162G, S165K
B4: biotinylated human NKG2D (receptor, UniProt P26718 78-216, looked up)
chain: FLNSLFNQEVQIPLTESYCGPCPKNWICYKNNCYQFFDESKNWYESQASCMSQNASLLKVYSKEDQDLLKLVKSYHWMGLVHIPTNGSWQWEDGSILSPNLLTIIEMQKGDCALYASSFKGYIENCSTPNTYICMQRTV
modifications: biotinylated (site not stated)
notes: also called recombinant biotinylated NKG2D
B5: WT α1-α2 soluble MICA protein (ligand, UniProt Q29983 24-299, looked up)
chain: EPHSLRYNLTVLSWDGSVQSGFLTEVHLDGQPFLRCDRQKCRAKPQGQWAEDVLGNKTWDRETRDLTGNGKDLRMTLAHIKDQKEGLHSLQEIRVCEIHEDNSTRSSQHFYYDGELFLSQNLETKEWTMPQSSRAQTLAMNVRNFLKEDAMKTKTHYHAMHADCLQELRRYLKSGVVLRRTVPPMVNVTRSEASEGNITVTCRASGFYPWNITLSWRQDGVSLSHDTQQWGDVLPDGNGTYQTWVATRICQGEEQRFTCYMEHSGNHSTHPVPSGK
notes: also called WT MICA; WT NKG2DL
B6: α1-α2 variant 16 (designed binder)
chain: EPHSLRYNLTVLSWDGSVQSGFLTEVHLDGQPFLRCDRQKCRAKPQGQWAEDVLGNKTWDRETRDLTGWGKDLRMTLAHIKDQKEGLHSLQEIRVCEIHEDNSTRSSQHFYYDGELFLSQNLETLEWTMPQSSRAQTLAMNVRNFLKEDAMETDTHYHAMRADCLQELRRYLKSGVVLRRTVPPMVQVTRSEASGGSGDRVTITCRASQDVSTAVAWYQQKPGKAPKLLIYSASFLYSGVPSRFSGSGSGTDFTLTISSLQPEDFATYYCQQSYTTPPTFGQGTKVEIKGGSSRSSSSGGGGSGGGGEVQLVESGGGLVQPGGSLRLSCAASGFTFTSTGISWVRQAPGKGLEWVGRIYPTNGSTNYADSVKGRFTISADTSKNTAYLQMNSLRAEDTAVYYCARTYGIYDLYVDYTEYVMDYWGQGTLVTVSSGGSSRSSSSGGGGSGGGGDIQMTQSPSSLSASGGSGQITVTCRASGFYPWNITLSWRQDGVSLSHDTQQWGDVLPDGQGTYQTWVATRISQGEEQRFTCYMEHSGQHSTHPVPSGKGSHHHHHH
B7: α1-α2 variant 17 (designed binder)
chain: B6 chain with G68L
B8: α1-α2 variant 18 (designed binder)
chain: B6 chain with S20P, G68L
B9: α1-α2 variant 20 (designed binder)
chain: B6 chain with G68A, E152Q, H158R, R161H, Q166F
notes: Expressed in HEK293 (Expi293)
B10: α1-α2 variant 25 (designed binder)
chain: B6 chain with Q166S
notes: Expressed in HEK293 (Expi293)
B11: α1-α2 variant 48 (designed binder)
chain: B6 chain with E152A, H158I, Q166A
notes: Expressed in HEK293 (Expi293)
B12: R80L (designed binder)
α1-α2 domain displayed on M13 phage (pIII fusion): AAEPHSLSYDITVIPKFRPGPRWCAVQGQVDEKTFLHYDCGNKTVTPVSPLGKKLNVTTAWKAQNPVLREVVDILTEQLLDIQLENYTPKEPLTLQARMSCEQKAEGHSSGSWQFSFDGQIFLLFDSEKRMWTTVHPGARKMKEKWENDKVVAMSFHYFSMGDCIGWLEDFLMGMDSTLEPSAGAPPMV
B13: V151D (designed binder)
α1-α2 domain displayed on M13 phage (pIII fusion): B12 α1-α2 domain displayed on M13 phage (pIII fusion) with S8C, L80R, V151D
B14: V152L (designed binder)
α1-α2 domain displayed on M13 phage (pIII fusion): B12 α1-α2 domain displayed on M13 phage (pIII fusion) with L80R, V152L

In assay [1] the target is T1, human NKG2D-Fc (human, UniProt P26718 78-216, limits assumed).
T1 construct: not shown: Fc part
T1 sequence (looked up): B4 chain
Description: phage ELISA: ULBP3 variant displayed on phage titrated against NKG2D.

Assay [2] addresses B5. Nature of the assay: biolayer interferometry (Octet), surface-coated biotinylated human NKG2D, 100 nM protein. A general note: Biolayer interferometry detects binding as a change in optical thickness at a sensor tip.
In assay [3] the target is B5. Description: biolayer interferometry (Octet), Kd = kOFF/kON.
Assay [4] concerns the target T1, human NKG2D-Fc. Nature of the assay: competition ELISA: inhibits 2 nM human NKG2D-Fc binding to plate-coated WT sMICA.
Description: Using a competitive binding ELISA, we determined the relative NKG2D binding affinities of the 4 modified α1-α2 variants.
Assay [5] has as its target T2, NKG2D on the human NK cell line NKL (human, UniProt P26718 1-216).
T2 sequence (looked up): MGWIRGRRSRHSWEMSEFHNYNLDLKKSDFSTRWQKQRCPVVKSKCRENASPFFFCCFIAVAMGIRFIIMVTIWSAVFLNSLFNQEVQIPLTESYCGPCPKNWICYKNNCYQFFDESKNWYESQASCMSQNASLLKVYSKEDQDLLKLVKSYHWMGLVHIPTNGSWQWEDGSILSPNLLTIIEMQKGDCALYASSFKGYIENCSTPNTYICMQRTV
Description: cell-based or functional assay.

For assay [6], the target named is B4. Description: biolayer interferometry (Octet), surface-coated biotinylated human NKG2D, titration 1-100 nM.
Description: (§1) In order to characterize the NKG2D binding affinities, both the on-rates and off-rates for the three α1-α2 variant NKG2DLs binding to surface-coated biotinylated human NKG2D were measured using biolayer interferometry (Octet). Binding titrations were performed for each protein using a titration range of 1-100 nM, and the kinetic data were fitted to obtain on-rates, off-rates, and equilibrium binding constants.
Assay [7] has as its target B4. Nature of the assay: biolayer interferometry (Octet), Kd = kOFF/kON.
Description: as §1
In assay [8] the target is B4. Description: biolayer interferometry (Octet), biotinylated human NKG2D; Table 5 compared with Table 3.
Description: as §1
Assay [9] addresses B4. Nature of the assay: biolayer interferometry (Octet), biotinylated human NKG2D; the reference is not named.
Description: as §1
Assay [10] deals with T1, human NKG2D-Fc. Description: phage ELISA: ULBP2 variant displayed on phage titrated against NKG2D.

These results are taken from US20160304578A1 (XYPHOS BIOSCIENCES, published 2016).

A word on the koff: it is the rate constant with which the complex falls apart. A higher koff goes with fast dissociation. Broadly, the kon is the second-order rate constant of association. High values mean fast association, low ones slow association. The term Kd denotes the constant that tells how readily two partners part at equilibrium. Lower therefore signals a tighter complex. As usually defined, the IC50 is the concentration at which inhibition is half-maximal. High values mean weaker potency in that assay, low ones greater potency in that assay.

Positions count from the first letter of the chain named. Numbers in names are those of the source.

Take B1: the “EC50 (read off the curve)” value in the assay with human NKG2D-Fc [1] was ~0.002 OD268 (phage).
Still for that read-out and setting: to B2 belongs ~0.004 OD268 (phage).
On the same count and under the same terms, to B3 belongs ~0.005 OD268 (phage).
In assay [2], B4 yielded a koff of 0.0018 s⁻¹ and a kon of 130000 M⁻¹ s⁻¹. In assay [3], this molecule came in with a dissociation constant (Kd) of 13.8 nM.
B5 came in with an IC50 with human NKG2D-Fc [4] of 19.4 nM.
In the case of B6, in [5], the “killing of FGFR3-expressing P815 target cells by NKL cells (calcein-release assay), fold over WT at 0.78 nM” value was roughly 15 fold.
The same measure, in the same setting: for B7 the value was roughly 15 fold; for B8, roughly 15 fold.
In the assay with biotinylated human NKG2D [6], B9 registered a koff of 3e-05 s⁻¹ and a kon of 360000 M⁻¹ s⁻¹. The molecule also gave a Kd with biotinylated human NKG2D [7] of 0.083 nM.
In the assay with biotinylated human NKG2D [6], B10 showed a koff of 2.9e-05 s⁻¹ and a kon of 470000 M⁻¹ s⁻¹. In addition, the “fold enhancement in equilibrium binding affinity against variant 16” value in the assay with biotinylated human NKG2D [8] was determined as 8 fold. The Kd with biotinylated human NKG2D [7] was found to be 0.062 nM. For the same molecule, in [5], the “EC50 for cell killing, fold improvement over variant 16” value is roughly 5 fold and the “killing of FGFR3-expressing P815 target cells by NKL cells (calcein-release assay), fold over variant 16 at 0.2 nM” value is roughly 3 fold.
Regarding B11, in the assay with biotinylated human NKG2D [9], the “fold reduction in NKG2D binding affinity” value turned out to be 250 fold. Also, in the assay with biotinylated human NKG2D [6], the koff turned out to be 0.003 s⁻¹ and the kon was 200000 M⁻¹ s⁻¹. In the assay with biotinylated human NKG2D [7], this molecule displayed a Kd of 15 nM.
In the case of B12, in the assay with human NKG2D-Fc [10], the “EC50 (read off the curve)” value was ~0.01 OD268 (phage).
The same measure, in the same setting: for B13 the value was ~0.01 OD268 (phage); for B14, ~0.01 OD268 (phage).
